Source: the supplement of paper PMC9112550, “Optimization of the antimicrobial peptide Bac7 by deep mutational scanning” (BMC Biology, 2022)

Tested on: Escherichia coli TOP10
Assay: shrunken log2 fold change of peptide-encoding DNA abundance (4.5 h post-induction vs induction); higher = less antimicrobial activity (less host growth inhibition)
Conditions: time post-induction: 4.5 h; library: site-saturation at positions 5, 18, 19, 20
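Note: peptides expressed intracellularly from a pBAD plasmid library in pooled LB shake-flask culture, induced with 0.3% L-arabinose, DNA abundance read by NGS, three biological replicates, DESeq2 with apeglm shrinkage.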

Sequence	shrunken log2 fold change
RRIRRRPPRLPRPRPRPELWPRP	0.518
RRIRRRPPRLPRPRPRPEPKPRP	1.46
RRIRRRPPRLPRPRPRPEPMPRP	0.882
RRIRRRPPRLPRPRPRPEPWPRP	0.538
RRIRRRPPRLPRPRPRPEQEPRP	0.0308
RRIRRRPPRLPRPRPRPEQQPRP	0.22
RRIRRRPPRLPRPRPRPERDPRP	0.423
RRIRRRPPRLPRPRPRPETHPRP	0.697
RRIRRRPPRLPRPRPRPEVDPRP	0.0409
RRIRRRPPRLPRPRPRPEVEPRP	0.0165
RRIRRRPPRLPRPRPRPEVTPRP	0.0976
RRIRRRPPRLPRPRPRPEWYPRP	-0.128
RRIRRRPPRLPRPRPRPEYIPRP	-0.199
RRIRRRPPRLPRPRPRPFAAPRP	0.98
RRIRRRPPRLPRPRPRPFDHPRP	-0.242
RRIRRRPPRLPRPRPRPFDMPRP	-0.0228
RRIRRRPPRLPRPRPRPFDYPRP	-0.0528
RRIRRRPPRLPRPRPRPFEDPRP	-0.0157
RRIRRRPPRLPRPRPRPFEGPRP	0.0216
RRIRRRPPRLPRPRPRPFEIPRP	-0.00184
RRIRRRPPRLPRPRPRPFESPRP	-0.0115
RRIRRRPPRLPRPRPRPFFMPRP	-0.0188
RRIRRRPPRLPRPRPRPFGEPRP	0.412
RRIRRRPPRLPRPRPRPFGHPRP	0.0281
RRIRRRPPRLPRPRPRPFGIPRP	0.0306

Sequence	shrunken log2 fold change
RRIRRRPPRLPRPRPRPFIMPRP	-0.251
RRIRRRPPRLPRPRPRPFLLPRP	0.0441
RRIRRRPPRLPRPRPRPFLNPRP	-0.0441
RRIRRRPPRLPRPRPRPFMWPRP	0.00755
RRIRRRPPRLPRPRPRPFNKPRP	-0.712
RRIRRRPPRLPRPRPRPFPPPRP	0.222
RRIRRRPPRLPRPRPRPFPYPRP	-0.28
RRIRRRPPRLPRPRPRPFQEPRP	-0.264
RRIRRRPPRLPRPRPRPFQSPRP	0.0629
RRIRRRPPRLPRPRPRPFQTPRP	0.0413
RRIRRRPPRLPRPRPRPFRGPRP	-0.105
RRIRRRPPRLPRPRPRPFRMPRP	-0.0671
RRIRRRPPRLPRPRPRPFRNPRP	-0.0392
RRIRRRPPRLPRPRPRPFRVPRP	0.12
RRIRRRPPRLPRPRPRPFSLPRP	0.0919
RRIRRRPPRLPRPRPRPFVEPRP	-0.142
RRIRRRPPRLPRPRPRPFVSPRP	-0.0868
RRIRRRPPRLPRPRPRPFYEPRP	-0.0293
RRIRRRPPRLPRPRPRPFYHPRP	0.0115
RRIRRRPPRLPRPRPRPGAKPRP	0.701
RRIRRRPPRLPRPRPRPGCVPRP	0.329
RRIRRRPPRLPRPRPRPGDWPRP	0.465
RRIRRRPPRLPRPRPRPGERPRP	0.0829
RRIRRRPPRLPRPRPRPGGKPRP	0.0881
RRIRRRPPRLPRPRPRPGHRPRP	0.192

Sequence	shrunken log2 fold change
RRIRRRPPRLPRPRPRPGIAPRP	0.185
RRIRRRPPRLPRPRPRPGICPRP	0.0771
RRIRRRPPRLPRPRPRPGINPRP	0.016
RRIRRRPPRLPRPRPRPGLFPRP	0.389
RRIRRRPPRLPRPRPRPGMCPRP	0.269
RRIRRRPPRLPRPRPRPGMPPRP	0.463
RRIRRRPPRLPRPRPRPGMQPRP	0.245
RRIRRRPPRLPRPRPRPGMRPRP	0.792
RRIRRRPPRLPRPRPRPGMYPRP	-0.0527
RRIRRRPPRLPRPRPRPGNPPRP	0.608
RRIRRRPPRLPRPRPRPGPKPRP	0.255
RRIRRRPPRLPRPRPRPGPWPRP	0.523
RRIRRRPPRLPRPRPRPGQPPRP	0.262
RRIRRRPPRLPRPRPRPGQRPRP	0.386
RRIRRRPPRLPRPRPRPGRDPRP	0.717
RRIRRRPPRLPRPRPRPGREPRP	-0.0226
RRIRRRPPRLPRPRPRPGRHPRP	0.212
RRIRRRPPRLPRPRPRPGTHPRP	0.243
RRIRRRPPRLPRPRPRPGTNPRP	0.0926
RRIRRRPPRLPRPRPRPGVGPRP	0.59
RRIRRRPPRLPRPRPRPGYMPRP	0.0939
RRIRRRPPRLPRPRPRPHACPRP	0.192
RRIRRRPPRLPRPRPRPHAYPRP	-0.394
RRIRRRPPRLPRPRPRPHDCPRP	0.00386
RRIRRRPPRLPRPRPRPHEAPRP	0.0262

Sequence	shrunken log2 fold change
RRIRRRPPRLPRPRPRPHEFPRP	0.0543
RRIRRRPPRLPRPRPRPHGIPRP	0.0963
RRIRRRPPRLPRPRPRPHINPRP	-0.432
RRIRRRPPRLPRPRPRPHKIPRP	-0.182
RRIRRRPPRLPRPRPRPHKLPRP	0.022
RRIRRRPPRLPRPRPRPHKNPRP	0.126
RRIRRRPPRLPRPRPRPHKQPRP	-0.00379
RRIRRRPPRLPRPRPRPHLFPRP	0.0328
RRIRRRPPRLPRPRPRPHLPPRP	0.141
RRIRRRPPRLPRPRPRPHLWPRP	0.25
RRIRRRPPRLPRPRPRPHMIPRP	-0.13
RRIRRRPPRLPRPRPRPHMKPRP	-0.654
RRIRRRPPRLPRPRPRPHMNPRP	-0.315
RRIRRRPPRLPRPRPRPHNGPRP	-0.172
RRIRRRPPRLPRPRPRPHNQPRP	-0.114
RRIRRRPPRLPRPRPRPHPAPRP	0.583
RRIRRRPPRLPRPRPRPHSKPRP	-0.198
RRIRRRPPRLPRPRPRPHTQPRP	0.573
RRIRRRPPRLPRPRPRPHTWPRP	0.0615
RRIRRRPPRLPRPRPRPHVNPRP	-0.0608
RRIRRRPPRLPRPRPRPHVPPRP	-0.148
RRIRRRPPRLPRPRPRPHWNPRP	-0.159
RRIRRRPPRLPRPRPRPHWPPRP	0.312
RRIRRRPPRLPRPRPRPHYAPRP	0.148
RRIRRRPPRLPRPRPRPHYFPRP	-0.173

Sequence	shrunken log2 fold change
RRIRRRPPRLPRPRPRPIAVPRP	-0.0851
RRIRRRPPRLPRPRPRPIDCPRP	0.00203
RRIRRRPPRLPRPRPRPIEIPRP	0.0138
RRIRRRPPRLPRPRPRPIFDPRP	0.369
RRIRRRPPRLPRPRPRPIHTPRP	0.00898
RRIRRRPPRLPRPRPRPIIFPRP	-0.0332
RRIRRRPPRLPRPRPRPIIKPRP	-0.265
RRIRRRPPRLPRPRPRPIKTPRP	0.00866
RRIRRRPPRLPRPRPRPILYPRP	0.143
RRIRRRPPRLPRPRPRPIPYPRP	-0.16
RRIRRRPPRLPRPRPRPIQLPRP	-0.407
RRIRRRPPRLPRPRPRPIQTPRP	0.00408
RRIRRRPPRLPRPRPRPIRDPRP	0.196
RRIRRRPPRLPRPRPRPIRIPRP	-0.106
RRIRRRPPRLPRPRPRPIRMPRP	0.302
RRIRRRPPRLPRPRPRPIRVPRP	0.244
RRIRRRPPRLPRPRPRPISRPRP	-0.0551
RRIRRRPPRLPRPRPRPISSPRP	0.0497
RRIRRRPPRLPRPRPRPISWPRP	-0.166
RRIRRRPPRLPRPRPRPITWPRP	-0.0299
RRIRRRPPRLPRPRPRPIWLPRP	0.0778
RRIRRRPPRLPRPRPRPIYKPRP	-0.394
RRIRRRPPRLPRPRPRPIYRPRP	-0.273
RRIRRRPPRLPRPRPRPIYYPRP	-0.192
RRIRRRPPRLPRPRPRPKAAPRP	0.596

Sequence	shrunken log2 fold change
RRIRRRPPRLPRPRPRPKALPRP	0.237
RRIRRRPPRLPRPRPRPKCSPRP	0.504
RRIRRRPPRLPRPRPRPKCVPRP	-0.29
RRIRRRPPRLPRPRPRPKDPPRP	0.121
RRIRRRPPRLPRPRPRPKDVPRP	0.159
RRIRRRPPRLPRPRPRPKEEPRP	-0.00663
RRIRRRPPRLPRPRPRPKFDPRP	0.101
RRIRRRPPRLPRPRPRPKFGPRP	0.172
RRIRRRPPRLPRPRPRPKGVPRP	0.401
RRIRRRPPRLPRPRPRPKHAPRP	0.407
RRIRRRPPRLPRPRPRPKIFPRP	0.0586
RRIRRRPPRLPRPRPRPKIWPRP	0.227
RRIRRRPPRLPRPRPRPKKDPRP	0.176
RRIRRRPPRLPRPRPRPKKSPRP	0.237
RRIRRRPPRLPRPRPRPKMCPRP	-0.0385
RRIRRRPPRLPRPRPRPKMIPRP	0.103
RRIRRRPPRLPRPRPRPKMNPRP	-0.0665
RRIRRRPPRLPRPRPRPKMQPRP	0.336
RRIRRRPPRLPRPRPRPKNDPRP	0.277
RRIRRRPPRLPRPRPRPKNMPRP	-0.00338
RRIRRRPPRLPRPRPRPKPSPRP	0.294
RRIRRRPPRLPRPRPRPKQLPRP	0.148
RRIRRRPPRLPRPRPRPKRMPRP	0.514
RRIRRRPPRLPRPRPRPKRSPRP	0.11
RRIRRRPPRLPRPRPRPKTYPRP	-0.239
